Reference: patent US20160311886A1, “Constructs Binding to Phosphatidylserine and Their Use in Disease Treatment and Imaging” (Board of Regents, The University of Texas System, priority 2005, published 2016)

B1: 3G4: Mouse IgG3 kappa monoclonal antibody to PS and anionic phospholipids; binding mediated by β2-glycoprotein I (antibody, listed as Mus musculus)
VH: MGWTWIFILILSVTTGVHSEVQLQQSGPELEKPGASVKLSCKASGYSFTGYNMNWVKQSHGKSLEWIGHIDPYYGDTSYNQKFRGKATLTVDKSSSTAYMQLKSLTSEDSAVYYCVKGGYYGHWYFDVWGAGTTVTVSSATTTAPSVYPLVP
VL: MDMRAPAQILGFLLLLFPGTRCDIQMTQSPSSLSASLGERVSLTCRASQDIGSSLNWLQQGPDGTIKRLIYATSSLDSGVPKRFSGSRSGSDYSLTISSLESEDFVDYYCLQYVSSPPTFGAGTKLELKRADAAPTVFIFGRIP

What was measured:
L540 Hodgkin tumors = experiment: Annexin V inhibition of coaguligand-induced thrombosis in vivo; parameters: species or system mouse
Description: The ability of Annexin V to inhibit coaguligand-induced thrombosis in vivo was examined in L540 Hodgkin-bearing SCID mice. Tumors were grown in mice and two mice per group (tumor size 0.5 cm in diameter) were injected intravenously via the tail vein with one of the following reagents: a) saline; b) 100 μg of Annexin V; c) 40 μg of anti-VCAM-1·tTF; d) 100 μg of Annexin V followed 2 hours later by 40 μg of anti-VCAM-1·tTF.
Four hours after the last injection mice were anesthetized and perfused with heparinized saline. Tumors were removed, fixed with 4% formalin, paraffin-embedded and stained with hematoxylene-eosin. The number of thrombosed and non-thrombosed blood vessels was counted and the percentage of thrombosis was calculated.

[1] = test system: IL-1α-stimulated bEnd.3 cells; experiment: Coaguligand-induced Factor Xa formation, chromogenic assay; type: cell-based, mouse; conditions: 10 μg per ml Annexin V
Description: The ability of Annexin V to affect Factor Xa formation induced by coaguligand was determined by a chromogenic assay. IL-1α-stimulated bEnd.3 cells were incubated with anti-VCAM-·tTF and permeabilized by saponin. Annexin V was added at concentrations ranging from 0.1 to 10 μg/ml and cells were incubated for 30 min. before addition of diluted Proplex T. The amount of Factor Xa generated in the presence or absence of Annexin V was determined. Each treatment was performed in duplicate and repeated at least twice.

[2] = test system: Pan02 mouse pancreatic adenocarcinoma; experiment: 3G4 and gemcitabine, pancreatic cancer; type: in vivo; conditions: 3G4 100 μg, gemcitabine 3.5 mg; day 22
Description: Pan02 mouse pancreatic adenocarcinoma cells were injected into the pancreas of immunocompetent C57BL/6 mice. Treatment was started on day 5 after tumor cell injection. […] Gemcitabine is a pyrimidine anti-metabolite. The animals were sacrificed at day 22 after tumor cell injection, and the tumor weight determined.

MDA-MB-435 breast tumors = experiment: 3G4 and chimeric 3G4 tumor treatment; type: in vivo, mouse; conditions: MD-MBA-435s; IP 800 μg day 15, 200 μg every two to three days, 400 μg day 35
Description: Tumors were also established using MD-MBA-435s cells and treated as described above. […] The treatment of large L540 tumors, MDA-MB-231 and MD-MBA-435s tumor cells for 60 days was also effective. The antibodies caused tumor vascular injury, thrombosis and necrosis and retarded tumor growth, with no evidence of toxicity.
MD-MBA-435s lucerifase cells were obtained from Dr. Angels Sierra Jimenez, Barcelona, Spain and were grown in 10% DMEM. Mice were injected with tumor cells as described as above, and at 2 weeks post injection, the tumors were measured and the volume recorded. […] Treatment was initiated by IP injection (800 μg) at day 15 and continued with injections of 200 μg every two to three days until the final injection of 400 μg at day 35. Tumor volumes and mouse body weights were measured on injection days. Mice were sacrificed and perfused with saline for 12 minutes. The organs and tumor were removed, snap-frozen in liquid nitrogen and the tumor sectioned for immunohistochemistical analysis.
Groups of 8-10 female SCID mice were injected subcutaneously with 2×10^7 L540 cells or orthotopically with 1×10^7 MDA-MB-435 or MDA-MB-231 cells. BALB/c mice were injected subcutaneously with 1×10^6 Meth A cells. […] Animals were monitored three times a week for tumor size and body weight. […]

[3] = test system: Tissue Factor (TF)-induced coagulation
mCMV RVG102 = experiment: Survival of mCMV-infected mice; type: in vivo, mouse; conditions: past 90 days post infection; untreated 25%
[4] = test system: orthotopic MDA-MB-435 breast tumors; experiment: 3G4 localization to tumor blood vessels in vivo; parameters: species or system mouse
Excerpt: Frozen sections of tumor and normal tissues were stained for the presence of mouse immunoglobulin. SCID mice that had been confirmed as having no detectable circulatory immunoglobulin were used to avoid background staining. In these studies, sections were counterstained with anti-mouse CD31 to detect vascular endothelium and the images were merged. […] Coincident staining appeared yellow, unless dominated by a particularly intense green or red fluorescence in that region. The antigen specificity of vessel localization was confirmed by the lack of endothelial staining in tumors from mice injected with the isotype-matched control antibodies, BBG3.

tumors = experiment: Tumor treatment with 3G4 and its F(ab′)2 fragment; type: in vivo, mouse; conditions: treated on day 9
[5] = test system: orthotopic MDA-MB-435 and MDA-MB-231 tumors; experiment: Macrophage infiltration during 3G4 tumor treatment; type: in vivo, mouse; conditions: 100 μg i.p. three times a week for 2-3 weeks
Description: Groups of 8-10 female SCID mice were injected subcutaneously with 2×10^7 L540 cells or orthotopically with 1×10^7 MDA-MB-435 or MDA-MB-231 cells. BALB/c mice were injected subcutaneously with 1×10^6 Meth A cells. Tumors were allowed to grow to an average diameter of 0.8-1 cm (L540), 0.6-0.7 cm (MDA-MB-435), 0.5-0.7 cm (MDA-MB-231), or <0.1 cm (Meth A). […] Animals were monitored three times a week for tumor size and body weight. Mice were sacrificed when tumors in control mice reached a diameter of 1.5-2 cm.

Row | Molecule | coaguligand-induced intravascular thrombosis and changes in tumor cell morphology (L540 Hodgkin tumors; 100 μg Annexin V 2 hours before 40 μg coaguligand) | tumor morphology (L540 Hodgkin tumors; 100 μg Annexin V alone) | inhibition of factor Xa production [1] | anti-tumor effect (tumor weight) [2] | tumor growth vs control (MDA-MB-435 breast tumors) | inhibition of TF-induced coagulation [3] | survival (mCMV RVG102) | tumor blood vessels with localized antibody ([4]; after i.p. or i.v. injection) | time to maximal localization to tumor vessels ([4]; i.p. injection) | time to maximal staining of tumor vessels ([4]; i.v. injection) | tumor growth (tumors) | leukocyte binding and infiltration [5]
1 | Annexin V: High affinity PS binding ligand; natural ligand binding anionic phospholipids and PE | completely abolished | did not alter tumor morphology | 58% | – | – | – | – | – | – | – | – | –
2 | B1 | – | – | – | significant anti-tumor effect | effectively retarded tumor growth | weak inhibition | 100% | 40±10% | ≤ 6 h | ≤ 1 h | tumor growth was significantly slowed | caused mononuclear leukocytes to bind to the tumor vascular endothelium and infiltrate into the tumor interstitium
